How the values were obtained:
[1] = biological target: CK2-phosphorylated XRCC4(1-238)-LigIV(654-911) complex (UniProt Q13426); test: SEC-MALS
[2] = biological target: CK2-phosphorylated XRCC4(1-238)-LigIV(654-911) complex (UniProt Q13426); test: SAXS

Chain of CK2-phosphorylated XRCC4(1-238)-LigIV(654-911) complex (Q13426 1-238, chain 1 of 2): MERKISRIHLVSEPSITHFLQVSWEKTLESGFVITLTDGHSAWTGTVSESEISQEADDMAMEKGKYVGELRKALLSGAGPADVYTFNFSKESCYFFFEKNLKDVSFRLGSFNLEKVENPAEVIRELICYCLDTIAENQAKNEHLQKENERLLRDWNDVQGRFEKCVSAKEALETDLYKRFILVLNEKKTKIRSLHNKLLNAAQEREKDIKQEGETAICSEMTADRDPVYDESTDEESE
Chain of CK2-phosphorylated XRCC4(1-238)-LigIV(654-911) complex (P49917 654-911, chain 2 of 2, further chain): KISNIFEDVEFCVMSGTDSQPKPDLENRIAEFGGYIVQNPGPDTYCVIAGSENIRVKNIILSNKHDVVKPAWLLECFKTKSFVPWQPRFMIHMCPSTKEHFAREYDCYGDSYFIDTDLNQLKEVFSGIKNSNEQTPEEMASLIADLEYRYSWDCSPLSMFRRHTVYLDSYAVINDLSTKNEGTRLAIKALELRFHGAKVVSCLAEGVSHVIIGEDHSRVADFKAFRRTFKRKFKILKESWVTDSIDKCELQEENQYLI

polynucleotide kinase/phosphatase (PNKP), full length, wild type (from UniProt Q96T60 1-521) (enzyme)
stoichiometry N (PNKP per pXRCC4 dimer-LigIV complex) [1]: 1 | stoichiometry N (PNKP per pXRCC4 dimer-LigIV complex) [2]: 1

— publication PMC5449630
